The assay concerns the target recombinant 190 kDa hHARE expressed in Flp-In 293 cells (human).

“mouse IgG (polyclonal serum or antibody)”: the endocytosis of ^125I-HA by 190hHARE Flp-In 293 cell lines at 37° C. (% of the control value) stood at 103.

The values are drawn from patent publication US20050287638A1.
